Target: T1, RelE2sca-His6 toxin (SCATT_39270) of Streptomyces cattleya DSM 46488 (Streptomyces cattleya DSM 46488, UniProt F8K3H9 1-87)
T1 construct: also called toxin RelE2sca; not shown: His6, N-terminal, kept
T1 sequence (looked up): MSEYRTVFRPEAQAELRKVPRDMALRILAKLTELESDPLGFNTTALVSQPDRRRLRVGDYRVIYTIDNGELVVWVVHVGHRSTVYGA
Test: SEC
Conditions: both partners purified

B1: RelB2sca antitoxin (SCATT_39280) of Streptomyces cattleya DSM 46488 (natural protein, UniProt G8WSR4 1-89, looked up)
chain: MTQPLPMESIRDVRAHLAEVVERADRDDVPTVITRRGKQVAAVVSIEVLRKYQEWEEREINRIIDERMANPTPGVPIEDIMRETLARSE
notes: Untagged in the co-purification; Copies 2 are those in the 2:2 complex with RelE2sca-His6; In the functional row the protein was expressed from pBAD-relB2sca-relEeco in E. coli MGJ5987; also called antitoxin RelB2sca; RelBsca; source: E. coli BL21(DE3), co-expressed with RelE2sca-His6 from pACYC-relB2sca-relE2scahis, co-purified on NTA-Ni resin
- stoichiometry N: 1 RelB2sca per RelE2sca-His6 (printed as 2:2)

From PMC4989188, “Identification and characterization of chromosomal relBE toxin-antitoxin locus in Streptomyces cattleya DSM46488” (Scientific Reports, 2016)
